Assay [1] deals with T1, cyno TRAIL R2-Fc (cynomolgus monkey (Macaca fascicularis)).
T1 construct: The text prints 'cyno TRAIL R2' and 'cyno TRAIL R2-Fc' for the same ELISAs; also called cynomolgus TRAIL R2
The assay can be described thus: competition ELISA: plate coated with F4 mod 1, cyno TRAIL R2-Fc, monomer titrated as competitor. Background: An ELISA detects its analyte on a solid surface through an enzyme-linked reagent.

Assay [2] deals with T1, cyno TRAIL R2-Fc. The assay can be described thus: competition ELISA: F4 mod 1 coated, cyno TRAIL R2-Fc.
Assay [3] concerns the target endogenous TRAIL R2 expressed on the cell surface (human, UniProt O14763 56-440). The assay can be described thus: cell-based or functional assay.
In assay [4] the target is T1, cyno TRAIL R2-Fc. The assay can be described thus: competition ELISA: plate coated with F4 mod 1, 0.75 nM cyno TRAIL R2-Fc, purified monomer titrated as competitor.

As usually defined, the IC50 is the concentration that inhibits the measured activity by half.

Where only a bound is given, the exact number is not on record here.

B1: F4 mod 12 (designed binder)
chain: SQIEVKDVTDTTALITWAKPWVDPPPLWGCELTYGIKDVPGDRTTIGLQQKHNQYSIGNLKPDTEYEVSLICFDPYGLKSRPAKETFTTGLGTLGHHHHHHHH
notes: Germline-engineered F4 mod 1
As for B1, the IC50 in assay [1] was found to be 50 nM. Besides, the “fold difference in binding between F4 mod 1 and F4 mod 12” value in assay [2] was at most 2 fold.

B2: A3 (1E11) (designed binder)
chain: SGGGGSAIEVKDVTDTTALITWAKPWVDPPPLWGCELAYGIKDVPGDRTTIDLQQKHTAYSIGNLKPDTEYEVSLICFDPYGAKSNPAKETFTTGGGGSGGGGSGGGGSAIEVKDVTDTTALITWAKPWVDPPPLWGCELAYGIKDVPGDRTTIDLQQKHTAYSIGNLKPDTEYEVSLICFDPYGAKSNPAKETFTTGGGGSGGGGSGGGGSAIEVKDVTDTTALITWAKPWVDPPPLWGCELAYGIKDVPGDRTTIDLQQKHTAYSIGNLKPDTEYEVSLICFDPYGAKSNPAKETFTTGGGGSGGGGSGGGGSAIEVKDVTDTTALITWAKPWVDPPPLWGCELAYGIKDVPGDRTTIDLQQKHTAYSIGNLKPDTEYEVSLICFDPYGAKSNPAKETFTTGGGGSGGGGSGTLGHHHHHHHH
Regarding B2, the “Maximum Inhibition % (H2122)” value in assay [3] came out at 91%.

B3: F4 mod 1 (designed binder)
chain: AIEVKDVTDTTALITWAKPWVDPPPLWGCELAYGIKDVPGDRTTIGLQQKHTAYSIGNLKPDTEYEVSLICFDPYGLKSRPAKETFTTGGGTLGHHHHHHHH
notes: F4 with a D to G mutation two amino acids before the DE loop
Take B3: the IC50 in assay [1] and in assay [4] was 34 nM each time. The “fold difference in binding between F4 mod 1 and F4 mod 12” value in assay [2] is at most 2 fold.

The values above are taken from patent publication US20130096058A1 (AstraZeneca / MedImmune, published 2013).
